The labels stand for the following.
B1: mRNA-splicing (parent)
chain: AGUUGCUGCUGGGAGCUCCAGCACAGUGAAAUGGACAGAAGGGCAGAGCAA

In the data set the parent is B1. The experiment in a line: exon inclusion enrichment index; higher = more inclusion; WT1 exon 5 minigene, HEK293.
With G5A C6U U7A G8U C9A C16G U17G, the “exon inclusion enrichment index” value came out at 0.00515.
For the variant C6A U7C C9G, the “exon inclusion enrichment index” value was 1.05.
For C6A U7C C9U the value was 1.42; for G5C C6G U7C U10C A31C U32C, 3.85; for G5U G8U C9U A30C A31G, 0.406.
For G5A U7C G8A U10C G34A A35G the value was 1.09.
For G5C C6U G8C C9U U10G G11U the value was 1.56; for G5U G8U C9A U10C, 0.61; for G5C C6G U7C U10C C36G A37G, 1.19.
Regarding G5C C6G U7C U10C C36G A37C, the “exon inclusion enrichment index” value was found to be 1.47.
Consider G5A C6A U7G G8U C9A, for which the “exon inclusion enrichment index” value turned out to be 0.0264.
Regarding G5C C6G U7C U10C A40U, the “exon inclusion enrichment index” value stood at 2.71.
For the variant C6A U7C C9A U10C A31U, the “exon inclusion enrichment index” value turned out to be 3.04.
Regarding G5C C6G U7C U10C C22U A23U, the “exon inclusion enrichment index” value was 2.76.
For G5C C6G U7C U10C A29G A30G the value was 3.01.
Consider A14C G15U, for which the “exon inclusion enrichment index” value is 0.0261.
Regarding C6A U7C C9A U10C U32A G33U, the “exon inclusion enrichment index” value came out at 3.1.
As for G5C C6A U7C G8A U10A U17G C18G, the “exon inclusion enrichment index” value was found to be 0.159.
For G5C C6G U7C U10C A39U the value was 0.26.
In the case of A31C, the “exon inclusion enrichment index” value came to 0.288.
As to G5C C6U G8C C9U U10C A31G U32G, the “exon inclusion enrichment index” value was 1.04.
For G5C C6A U7C G8A U10A A23C C24A the value was 0.209.
In the case of G5C C6A U7C G8A U10A A23C C24U, the “exon inclusion enrichment index” value was found to be 0.0196.
Take G5A C6G U7G C9A U32G: the “exon inclusion enrichment index” value is 0.00176.
For G5C C6G U7C U10C G28A A29C the value was 2.29.
For C6A U7C C9A U10C A37C the value was 3.93; for U7G G8A, 2.02; for G5C C6G U7C U10C C16A U17A, 4.02.
Turning to G5C C6A U7C G8A U10A A40C G41C, the “exon inclusion enrichment index” value worked out at 0.71.
For C6A U7C C9A U10C G41A G42A the value was 2.59.
For G5C C6A U7C G8A U10A A20C the value was 0.142.
With G5C C6A U7C G8C C9G U10A, the “exon inclusion enrichment index” value turned out to be 2.51.
For G5A C6G U7G C9A A31G U32A the value was 0.0281; for C6A U7A C9A U10A G12U G13A, 0.633; for U4A G5C C6U U7A G8U C9A, 0.177.
For G5A U7C G8A U10C G43U C44U the value was 0.735; for G5A U7C G8A U10C A31C U32G, 2.85.
For C6A U7A C9A U10C the value was 2.59; for C6A U7A C9A U10A G33A G34C, 0.0943.
On to G5U G8U C9U G43C C44U, for which the “exon inclusion enrichment index” value worked out at 0.0876.
Regarding U4G C6A U7A C9A U10A, the “exon inclusion enrichment index” value is 0.488.
Consider G5A U7C G8A U10C A37G G38U, for which the “exon inclusion enrichment index” value amounted to 0.991.
For G5U G8U C9U U10G G11A the value was 0.429.
Consider G5A U7G G8C U10C, for which the “exon inclusion enrichment index” value turned out to be 2.13.
Take G5A C6G U7G C9A C22G A23G: the “exon inclusion enrichment index” value was 0.00134.
On to G5A C6U U7A C9A U10A, for which the “exon inclusion enrichment index” value turned out to be 0.0444.
For G5C C6G U7C U10C G12U G13U the value was 0.206; for C19G A20G, 1.23.
For G5C C6A U7C G8A U10A G38C, the “exon inclusion enrichment index” value is 0.0648.
With G5A C6U U7A G8U C9A U17G, the “exon inclusion enrichment index” value was 0.0456.
For G5A C6A U7C G8A U10C the value was 1.79; for G5C C6U, 0.0627; for G5C C6A U7C G8A U10A U27A, 0.151.
For the variant G5C C6A U7C G8A U10A U27G, the “exon inclusion enrichment index” value was 0.0422.
For C6A U7C C9A U10C U27C G28U the value was 2.92.
As to U3G U4G G5A C6U U7A G8U C9A, the “exon inclusion enrichment index” value was determined as 0.0433.
For C6A U7C C9A U10C A37G G38U the value was 1.68; for G5C C6U G8C C9U U10C A23G, 2.93.
Regarding G2C U3C C6A U7A C9A U10A, the “exon inclusion enrichment index” value turned out to be 0.779.
As to G2U U3C C6A U7C C9A U10C, the “exon inclusion enrichment index” value was 4.67.
Regarding G5U G8U C9U G28U A29C, the “exon inclusion enrichment index” value turned out to be 0.0643.
For G5A C6G U7G C9A C22G the value was 0.00114; for G5C C6G U7C U10C A25C G26C, 4.35; for U3A U4C G5A C6G U7G C9A, 0.0761.
For G5A C6U U7C G8A U10C, the “exon inclusion enrichment index” value worked out at 2.02.
For C6A U7C C9A U10C A25C G26U the value was 3.89.
For A40G G41C the value was 0.927; for G2U G5C C6A U7C G8A U10A, 0.329.
For G5A C6G U7G C9A C18G C19A the value was 0.00169; for G5U G8U C9U G46A, 0.192.
As to U3G U4C G5A C6G U7G C9A, the “exon inclusion enrichment index” value is 0.0394.
For U3G U4G G5A U7C G8A U10C the value was 1.93.
For C22A A23U the value was 1.56; for G5C C6A U7C G8A U10G, 0.737; for G5C C6G U7C U10C G42A G43U, 5.36.
For G2C U3G G5A U7C G8A U10C the value was 2.64; for G5C C6G U7C U10C A14U, 1.05.
In the case of G5A C6G U7G C9A C24U A25C, the “exon inclusion enrichment index” value was determined as 0.0183.
For G5C C6G U7C G8C U10C the value was 2.87; for G5C C6U G8C C9U U10C A45C, 2.06.
For G5A C6G U7G C9A A40G G41A, the “exon inclusion enrichment index” value amounted to 0.0007.
For G5C C6G U7C U10C C19A the value was 2.65.
Turning to G5C C6G U7C U10C C19G, the “exon inclusion enrichment index” value is 3.72.
For U10G G11C the value was 2.98; for G5A C6G U7G, 0.00284; for G5A C6G U7A C9A, 0.0497.
As to G5C C6U G8C C9U U10C G34A A35U, the “exon inclusion enrichment index” value turned out to be 0.568.
Turning to G5C C6A U7C G8A U10A A30C A31C, the “exon inclusion enrichment index” value worked out at 0.314.
For G5A C6U U7A G8U C9A G28A A29U the value was 0.00845; for G5U G8U C9U G38U A39G, 0.0405; for G5C C6A U7C G8A U10A G43U C44A, 0.00933.
For C36G A37G the value was 0.0334.
Take G5C C6G U7C U10C G34U A35U: the “exon inclusion enrichment index” value worked out at 1.2.
For G5A C6U U7A G8U C9A C16U U17A the value was 0.0252; for G5U G8A C9U, 0.205.
For G5C C6A U7C G8A U10A A45U G46A the value was 0.0675.
Regarding G5C C6A U7A U10A, the “exon inclusion enrichment index” value came to 0.407.
With G5A U7C G8A U10C A20G G21U, the “exon inclusion enrichment index” value is 2.6.
As to G5A C6U U7A G8U C9A C44U A45U, the “exon inclusion enrichment index” value came to 0.0242.
For G5A C6G U7G C9A G42U G43A the value was 0.00514; for G2C U3A G5C C6U G8C C9U U10C, 1.71; for G2U U3A G5A C6U U7A G8U C9A, 0.247.
In the case of G5U G8U C9U G11A G12C, the “exon inclusion enrichment index” value was found to be 0.0306.
For G5C C6A U7C G8A U10A A14G G15C the value was 0.0391; for G13C, 0.0504; for C6A U7C C9A U10C G26C U27C, 4.37.
Regarding G5A C6G U7G C9A G26A U27A, the “exon inclusion enrichment index” value was 0.00661.
For G5C C6A U7C G8A U10A A39G A40C, the “exon inclusion enrichment index” value was 0.119.
As for C6A U7C C9A U10C C18U C19G, the “exon inclusion enrichment index” value was found to be 1.93.
For C6A U7A C9A U10A G41C G42U the value was 2.17.
For U4G G5A C6U U7A G8U C9A the value was 0.156.
For G5A U7C G8A U10C U17C the value was 1.62; for G5A C6U U7A G8U C9A A47G, 0.0115.
Regarding C6A U7A C9A U10A G42C, the “exon inclusion enrichment index” value turned out to be 1.99.
On to G5C C6A U7C G8A U10A G21U C22A, for which the “exon inclusion enrichment index” value was 0.0315.
Take G5C C6U U7A G8A U10A: the “exon inclusion enrichment index” value was determined as 0.064.
Consider G42C G43C, for which the “exon inclusion enrichment index” value was found to be 0.757.
For G5A U7C G8A C9G U10A the value was 0.989; for G5A C6U U7A G8U C9A G34U A35C, 0.0139; for G5A C6G U7G C9A G34U A35U, 0.00101.
C36U: the “exon inclusion enrichment index” value amounted to 0.0249.
For G5A C6G U7G C9A A31C U32A the value was 0.00457; for G5A C6G U7G C9A C18A C19A, 0.0013; for G5A U7C G8A U10C C19A A20G, 0.441.
As for A25U, the “exon inclusion enrichment index” value amounted to 0.241.
For G5C C6G U7C U10C U32A G33U the value was 2.76.
With C6A U7C C9A U10C G21A C22G, the “exon inclusion enrichment index” value amounted to 3.04.
For G5C C6U G8C C9U U10C A25U G26A the value was 2.23; for C6A U7A C9A U10A G46A, 0.993.
For G5C C6A U7C G8A U10A U17A C18U the value was 0.0447; for A47G G48C, 0.0501; for U4G G5A C6U G8C C9U U10C, 1.22.
For C6A U7C C9A U10C C18A C19U the value was 0.374; for G5C C6G U7C U10C A14C G15U, 1.33; for G5C C6G U7C U10C G11U G12U, 1.49.
G5U G8U C9U G48A: the “exon inclusion enrichment index” value turned out to be 0.314.
For C6A U7A C9A U10A C22G the value was 0.964.
For G5C C6U G8C C9U U10C C36A A37C the value was 2.33; for G5A C6G U7G C9A G21C C22U, 0.00338.
Regarding G5C C6U G8C C9U U10C U17A, the “exon inclusion enrichment index” value amounted to 1.95.
For G5U G8U C9U U27G G28C the value was 0.027; for C6A U7C C9A U10C G15A C16A, 2.34; for C6A U7C U10A, 0.41.
For G5C C6G U7C U10C A45G G46A the value was 6.29.
For G5C C6A U7C G8A U10A G48U the value was 0.218; for G5C C6A U7C G8A U10A G48C, 0.213.
In the case of G5A U7A C9A U10A, the “exon inclusion enrichment index” value was determined as 0.318.
Turning to G5A C6G U7G C9A A39U A40C, the “exon inclusion enrichment index” value came to 0.0022.
For C6A U7A C9A U10A A14C G15C the value was 0.452; for C6A U7A C9A U10A A40C G41C, 1.98; for G5A U7C G8A U10C G12A, 1.48.
For G5C C6A U7C G8A U10A G41C G42C the value was 0.654.
As for G5C C6U G8C C9U U10C U32C G33C, the “exon inclusion enrichment index” value came to 2.66.
For C6A U7C C9A U10C G13U the value was 1.08; for G5C C6A U7C G8A U10A G34U A35U, 0.00489; for G5C C6G U7C U10C G26C U27G, 4.43.
G5C C6G U7C U10C G26C U27A: the “exon inclusion enrichment index” value is 3.33.
For G5C C6A U7C G8A U10A A40U the value was 0.0713.
For G5C C6G U7C U10C G13C A14C the value was 1.79.
C6A U7A C9U U10G: the “exon inclusion enrichment index” value worked out at 0.0647.
For G5A U7C G8A U10C A23C C24G the value was 3.75.
For C6A G8A C9A U10C the value was 0.666.
Regarding A30C A31C, the “exon inclusion enrichment index” value worked out at 0.337.
With C6A U7A C9A U10G G11C, the “exon inclusion enrichment index” value was 1.95.
As to C6A G8U C9A U10A, the “exon inclusion enrichment index” value is 0.023.
For G5U G8U C9U G26C U27G the value was 0.648; for G5A C6U U7A G8U C9A C16A, 0.0643.

The values above are taken from the RNAGym collection of RNA variant scans (doi:10.1101/gr.219683.116).
